This note sets out measurements from the Immune Epitope Database (IEDB).

In one assay the target is HLA-B*44:02. Put plainly: IEDB peptide-MHC binding, purified MHC/direct/fluorescence; filed as Kd, often an IC50 or EC50 that approximates it; ≥ and ≤ were set here for values at or beyond the usual limits of such assays. Conditions: source organism: Escherichia coli O157:H7.
The target of another assay is HLA-B*15:01. Described as above.
Another assay deals with HLA-B*27:05. Described as above.
A further assay has as its target HLA-B*40:01. The assay is described as above.
For assay [1], the target named is HLA-B*08:01. The description is as above.
In another assay the target is HLA-B*35:01. Described as above.
For a further assay, the target named is HLA-B*58:01. The description is as above.
A further assay deals with HLA-A*26:01. The assay is described as above.
A further assay concerns the target HLA-A*03:01. Described as above.
A further assay deals with HLA-A*69:01. Described as above.
Assay [2] has as its target HLA-A*31:01. The assay is described as above.
Assay [3] addresses HLA-B*07:02. The assay is described as above.
Assay [4] concerns the target HLA-A*11:01. The assay is described as above.
In another assay the target is HLA-A*02:01. The description is as above.
The target in the next assay is HLA-A*01:01. The description is as above.
The target in another assay is HLA-A*24:03. The assay is described as above.
The target in assay [5] is HLA-B*08:01. The experiment in a line: IEDB peptide-MHC binding, purified MHC/competitive/fluorescence; ≥ and ≤ were set here for values at or beyond the usual limits of such assays.
Assay [6] addresses HLA-A*11:01. The assay is described as above. The conditions noted are these: source organism: Zaire ebolavirus.
The target of a further assay is HLA-B*15:42. Put plainly: IEDB peptide-MHC binding, purified MHC/competitive/fluorescence; filed as Kd, often an IC50 or EC50 that approximates it; ≥ and ≤ were set here for values at or beyond the usual limits of such assays. The conditions noted are these: source organism: Giardia lamblia ATCC 50803.
In a further assay the target is HLA-A*32:07. The assay is described as above. Conditions: source organism: Giardia lamblia ATCC 50803.
The target in the next assay is HLA-B*83:01. Described as above. Conditions: source organism: Giardia lamblia ATCC 50803.
For assay [7], the target named is HLA-A*31:01. The assay is described as above. The conditions noted are these: source organism: Giardia lamblia ATCC 50803.
The target in the next assay is HLA-B*45:06. Described as above. Conditions: source organism: Giardia lamblia ATCC 50803.
The target in assay [8] is HLA-A*24:02. Put plainly: IEDB peptide-MHC binding, purified MHC/competitive/fluorescence; ≥ and ≤ were set here for values at or beyond the usual limits of such assays. Conditions: source organism: Variola virus.
Assay [9] concerns the target HLA-B*07:02. The description is as above. The conditions noted are these: source organism: Variola virus.
In the next assay the target is HLA-B*15:09. Put plainly: IEDB peptide-MHC binding, purified MHC/direct/fluorescence; filed as Kd, often an IC50 or EC50 that approximates it; ≥ and ≤ were set here for values at or beyond the usual limits of such assays. Conditions: source organism: Campylobacter jejuni subsp. jejuni CG8486.
The next assay addresses HLA-B*39:01. Described as above. Conditions: source organism: Campylobacter jejuni subsp. jejuni CG8486.
The next assay addresses HLA-B*57:01. The assay is described as above. Conditions: source organism: Campylobacter jejuni.
For another assay, the target named is HLA-B*15:17. Described as above. Conditions: source organism: Campylobacter jejuni.
A further assay addresses HLA-A*68:02. Described as above. Conditions: source organism: Campylobacter jejuni.
For the next assay, the target named is HLA-B*18:01. The description is as above. The conditions noted are these: source organism: Campylobacter jejuni.
The target of another assay is HLA-A*26:03. The description is as above. The conditions noted are these: source organism: Campylobacter jejuni subsp. jejuni CG8486.
Assay [10] addresses HLA-A*24:02. The description is as above. The conditions noted are these: source organism: Campylobacter jejuni.
The next assay deals with HLA-A*23:01. Described as above. Conditions: source organism: Campylobacter jejuni.
The target in the next assay is HLA-A*26:02. Put plainly: IEDB peptide-MHC binding, purified MHC/competitive/fluorescence; filed as Kd, often an IC50 or EC50 that approximates it; ≥ and ≤ were set here for values at or beyond the usual limits of such assays. The conditions noted are these: source organism: Campylobacter jejuni subsp. jejuni NCTC 11168 = ATCC 700819.
A further assay has as its target HLA-A*30:01. Put plainly: IEDB peptide-MHC binding, purified MHC/direct/fluorescence; filed as Kd, often an IC50 or EC50 that approximates it; ≥ and ≤ were set here for values at or beyond the usual limits of such assays. Conditions: source organism: Corynebacterium glutamicum.
[11] abbreviates: source organism: Escherichia coli O157:H7.
[12] abbreviates: source organism: Salmonella enterica subsp. enterica serovar Typhimurium.
[13] abbreviates: source organism: Escherichia coli.
Where [14] appears, read: source organism: Campylobacter jejuni.
Where [15] appears, read: source organism: Corynebacterium glutamicum.

Broadly, the Kd is the constant that tells how readily two partners part at equilibrium. Turning to ATISYRIKL, the Kd is at least 20 µM with HLA-B*44:02; at least 20 µM with HLA-B*15:01 (setting [11]); at least 20 µM with HLA-B*27:05 (setting [11]); at least 20 µM with HLA-B*40:01 (setting [11]); at least 20 µM with HLA-B*08:01 [1] (setting [11]); 0.542 µM with HLA-B*35:01 (setting [12]). Moreover, the Kd in the assay with HLA-B*58:01 (setting [11]) is at least 20 µM; with HLA-A*26:01 (setting [12]), 2.64 µM; with HLA-A*03:01 (setting [11]), at least 20 µM; in the assay with HLA-A*69:01 (setting [12]), 0.0558 µM; with HLA-A*31:01 [2] (setting [11]), at least 20 µM; with HLA-B*07:02 [3] (setting [11]), at least 20 µM. For the same sequence, the values for the Kd in the assay with HLA-A*11:01 [4] (setting [12]), with HLA-A*02:01 (setting [12]) and with HLA-A*01:01 (setting [11]) were 0.0546 µM, 0.106 µM and at least 20 µM, respectively.
As for DISPTNIPL, the Kd was at least 20 µM with HLA-B*44:02; at least 20 µM with HLA-B*15:01 (setting [11]); at least 20 µM in the assay with HLA-B*27:05 (setting [11]); at least 20 µM with HLA-B*40:01 (setting [11]); at least 20 µM in the assay with HLA-B*08:01 [1] (setting [11]); 0.105 µM with HLA-B*35:01 (setting [11]). Also, the Kd is at least 20 µM with HLA-B*58:01 (setting [11]); 6.55 µM with HLA-A*26:01 (setting [11]); at least 20 µM with HLA-A*03:01 (setting [11]); 0.0148 µM with HLA-A*69:01 (setting [11]); at least 20 µM with HLA-A*31:01 [2] (setting [11]); at least 20 µM with HLA-B*07:02 [3] (setting [11]). Also, the dissociation constant (Kd) in the assay with HLA-A*11:01 [4] (setting [11]), with HLA-A*02:01 (setting [11]) and in the assay with HLA-A*01:01 (setting [11]) was at least 20 µM throughout.
Turning to DPRDDLSGM, the dissociation constant Kd with HLA-A*24:03 (setting [13]), with HLA-B*44:02, in the assay with HLA-B*15:01 (setting [11]), with HLA-B*27:05 (setting [11]), in the assay with HLA-B*40:01 (setting [11]) and in the assay with HLA-B*08:01 [1] (setting [11]) was at least 20 µM each time. For the same sequence, the Kd was 0.0994 µM in the assay with HLA-B*35:01 (setting [13]); at least 20 µM in the assay with HLA-B*58:01 (setting [11]); at least 20 µM in the assay with HLA-A*26:01 (setting [11]); at least 20 µM in the assay with HLA-A*03:01 (setting [11]); at least 20 µM with HLA-A*69:01 (setting [11]); at least 20 µM with HLA-A*31:01 [2] (setting [11]). In addition, the Kd in the assay with HLA-B*07:02 [3] (setting [13]) is 7.81 µM; with HLA-A*11:01 [4] (setting [11]), at least 20 µM; with HLA-A*02:01 (setting [11]) it was at least 20 µM; in the assay with HLA-A*01:01 (setting [11]), at least 20 µM.
A word on the IC50: it is the concentration needed to halve the response being measured. Lower therefore signals greater potency in that assay. As for HRTIHHASA, the IC50 with HLA-B*08:01 [5] (source organism: Zaire ebolavirus) is at least 138 µM; with HLA-A*11:01 [6] it was at least 156 µM.
Consider NIKHKERIP, for which, in the assay with HLA-B*08:01 [5] (source organism: Vaccinia virus Copenhagen), the IC50 is at least 292 µM.
Regarding RLYPFGSYY, the Kd in the assay with HLA-A*03:01 (source organism: Giardia lamblia ATCC 50803) is at most 0.001 µM; in the assay with HLA-B*15:42, at least 5 µM; with HLA-A*32:07, 0.0041 µM; with HLA-B*83:01, at least 5 µM; with HLA-A*31:01 [7], 0.0313 µM; with HLA-B*45:06, at least 5 µM.
With TPKAQREIF, the results for the IC50 with HLA-B*08:01 [5] (source organism: Variola virus), with HLA-A*24:02 [8] and with HLA-B*07:02 [9] were at least 142 µM, 14.1 µM and 16.1 µM, respectively.
As for WFGHLASDW, the Kd with HLA-B*15:09 is at least 20 µM; in the assay with HLA-B*39:01, at least 20 µM; with HLA-B*57:01, at least 20 µM; in the assay with HLA-A*24:03 (setting [14]) it was 0.0215 µM; with HLA-B*15:17, at least 20 µM; with HLA-A*68:02, at least 20 µM. Further, the Kd was 7 µM in the assay with HLA-B*15:01 (setting [14]); at least 20 µM with HLA-B*27:05 (setting [14]); 13 µM in the assay with HLA-B*58:01 (setting [14]); at least 20 µM with HLA-A*03:01 (setting [14]); at least 20 µM in the assay with HLA-A*69:01 (setting [14]); at least 20 µM with HLA-B*18:01. In addition, the equilibrium dissociation constant (Kd) was at least 20 µM with HLA-A*26:03; at least 20 µM in the assay with HLA-A*31:01 [2] (setting [14]); 1.6 µM in the assay with HLA-A*24:02 [10]; at least 20 µM with HLA-B*07:02 [3] (setting [14]); at least 20 µM with HLA-A*11:01 [4] (setting [14]); 0.34 µM in the assay with HLA-A*23:01. Moreover, the Kd in the assay with HLA-A*02:01 (setting [14]), in the assay with HLA-A*01:01 (setting [14]) and with HLA-A*26:02 was at least 20 µM throughout.
As for WPALSSIAA, the Kd is 7.5 µM with HLA-A*30:01; at least 20 µM in the assay with HLA-A*24:03 (setting [15]); at least 5 µM with HLA-B*15:01 (setting [15]); at least 20 µM with HLA-B*27:05 (setting [15]); at least 20 µM in the assay with HLA-B*40:01 (setting [15]); 1.28 µM with HLA-B*08:01 [1] (setting [15]). In addition, the Kd with HLA-B*35:01 (setting [15]) is 0.0017 µM; with HLA-B*58:01 (setting [15]) it was at least 20 µM; with HLA-A*26:01 (setting [15]) it was at least 20 µM; with HLA-A*03:01 (setting [15]), at least 20 µM; with HLA-A*31:01 [2] (setting [15]), at least 20 µM; with HLA-B*07:02 [3] (setting [15]), 0.00878 µM. For the same sequence, the Kd with HLA-A*11:01 [4] (setting [15]), in the assay with HLA-A*02:01 (setting [15]) and in the assay with HLA-A*01:01 (setting [15]) was at least 20 µM throughout.
